One data set deals with T1, recombinant ADK (Homo sapiens, UniProt P55263).
T1 construct: purchased Novus Biologicals or R&D Systems NBP1-44382 or 8024-AK-025
Description: Recombinant kinase activity assay, ADK (Kinase-Glo). It is filed as biochemical. The method, then: (§1) An on-bead kinase assay was developed to measure the activity of endogenous NDPK and ADK pulled down from serum using a-Ab or c-Ab conjugated beads. Both NDPK and ADK are bi-directional kinases that will produce ATP or ADP depending on the substrates provided (FIGS. 4B-C). Kinase activity assays were performed in 384-well plates in reaction buffer (PBS with 0.1% BSA, 0.01% F-127, 5 mM MgCl2). Experiments with recombinant proteins were performed at final concentrations of 40 μg/ml for ADK and FABP4, and 20 ug/ml for NDPK, and a reaction volume of 10 μl. Antibodies were used at a final concentration of 80 ug/ml. Substrates were added in equimolar ratios depending on the kinase being assayed and the direction of the reaction in serial dose responses, with the highest concentration of 5 μM. Proteins and substrates were incubated for 1 hr at room temperature, and ADP and ATP production were monitored using ADP-Glo and Kinase-Glo kits, respectively, according the manufacturer instructions (V6930 and V6711 Promega, USA). Luminescence was quantified using a SpectraMax Paradigm plate reader 30 min after the addition of substrate. Consistent with the MS results, ADK activity, as measured by generation of ATP, was specifically observed in samples pulled down with a-Ab but not c-Ab (FIG. 5A). […] To test this possibility, the ATP and ADP generating activity of recombinant ADK was assessed in the presence of the proposed complex components.
(In general: Kinase-Glo measures the ATP left after a reaction by luminescence.)

Data set [1] has as its system INS1 cells.
Description: Cells were pre-treated with P2Y1 activator (0.5 nM; MRS2365 Tocris #2157) during the pre-incubation period. Cells were stimulated with ATP (5 μM; Promega #V915A) or ADP (2.5 μM; Promega #V916A) acutely with the addition of LG and HG KRB during the serial stimulation. Cells were treated with 100 ng/ml recombinant human FABP4 (produced in-house), 200 ng/ml recombinant human ADK (Novus Biologicals, product number NBP1-44382 or R&D Systems, product number 8024-AK-025), or 100 ng/ml recombinant human NDPK-A (Acro Biosystems, product number NM1-H5147) where indicated, for the pre-incubation period, as well as during the glucose stimulation.
Briefly, INS1 cells were plated in imaging disks at 5000 cells/dish and cultured in standard media overnight. Cells were washed with PBS, and incubated in imaging buffer without glucose, with or without calcium containing Fura-2 AM (2 mM; ThermoFisher F1201) for 30 minutes at 37° C. Cells were washed twice with fresh PBS, and placed in lml imaging buffer. Calcium flux was evaluated with the addition of 20 mM glucose, 30 mM KCl, or 1 μM Thapsigargin. Extracellular calcium was added at 1.5 mM. Calcium flux measurements were performed using an epifluorescence system coupled to a Ti-S/L100 inverted microscope L100 with fluorescent light source (X-Cite 120LED System) equipped with Lambda DG-4 Plus for UV ratiometric probes. Excitations at 340 nm and 380 nm were used and an emission of 510 nm. Analysis was performed using ImageJ software. Calcium flux was measured from 50 cells per coverslip.
For data set [2], the system named is INS1 cells. As to the kind of experiment: Cytosolic calcium flux, Fura-2 AM imaging. Particulars: 20 mM glucose. On the technique in general: Calcium flux is commonly read through the fluorescence of an indicator in the cells.
The subject of another data set is primary human islets. Description: Glucose-stimulated insulin secretion (GSIS), human islets. It is filed as cell-based. The method, then:
Primary islet isolation from mice was performed as previously described (Batchuluun et al., 2018; Prentice et al., 2014) and GSIS was assessed following acute treatment with NDPK-ADK in the presence or absence of FABP4. Insulin secretion assays were performed as previously described (Prentice et al., 2014). For primary islets, 20 islets were hand-picked into 1.5 ml tubes, washed twice with Krebs Ringer Buffer (KRB) without glucose, and pre-incubated in 500 μl low glucose (LG; 2.8 mM) KRB for 1 hour at 37° C. KRB was then removed and 250 μl of fresh LG KRB added. Islets were incubated for 20 minutes at 37° C. Supernatant was collected and 250 μl high glucose (HG; 16.7 mM) KRB added. Islets were incubated for 20 minutes at 37° C. In conditions where KCl was used, HG KRB was collected, and 250 μl KC1 (16.7 mM glucose, 30 mM KCl) KRB added. Islets were incubated for 20 minutes at 37° C., and supernatant collected. Following the stimulation protocol, cells were lysed in 100 μl acid ethanol (70% ethanol, 1% HCl in water) and stored at 4° C. overnight. Samples were evaporated using a SpeedVac until dried, and resuspended in 60 μl ultrapure water. DNA was quantified by Nanodrop (ThermoFisher, USA). Insulin from supernatant was quantified using insulin HTRF (Insulin Ultrasensitive Assay kit 62IN2PEH; Cisbio, USA). […]

Data set [3] deals with INS1 cells. As to the kind of experiment: Glucose-stimulated insulin secretion (GSIS), INS1 cells. The format is cell-based, rat. The procedure: This finding was recapitulated in both primary human islets from multiple non-diabetic donors (FIG. 6B), as well as INS1 cells (FIG. 6C). Human islets from review board approved healthy donors were isolated using the Edmonton protocol and provided by the IsletCore and Clinical Islet Laboratory (University of Alberta, Canada). Donors with a BMI<25 and HbA1c<6.0% were used for experiments. Islets were hand-picked three times and cultured at 37° C. in RPMI media with 10% FBS and 1% Penicillin/Streptomycin overnight before use. For INS1 cells, cells were plated at 8000 cells/well in 96-well plates and incubated overnight prior to experimentation. Insulin secretion assay was performed as above using 200 μl/well for each treatment. Cells were lysed using 80 μl ultrapure water and flash freezing. For siRNA experiments, INS1 cells were allowed to reach confluency before transfection of siRNA (Horizon Discovery; L-090381-02-0005) using Lipofectamine 3000 (Thermo Fischer; L3000015) according to manufacturer protocol for 48 hours prior to assays.
As additional controls, it was explored whether lipid binding was required for FABP4 action. […] FABP4 inhibitor studies were performed using BMS-309403 (10 nM; Sigma #BM0015).
To further elucidate the role of purinergic receptors in this signaling process, a potent and selective P2Y1 inhibitor, MRS2179 (Baurand et al., 2001) was utilized. […]

A further data set deals with FABP4 (Homo sapiens, UniProt P15090). Description: Antibody binding affinity for FABP4. Particulars: compared to traditional therapeutic antibodies.
Chain of FABP4 (P15090 whole entry): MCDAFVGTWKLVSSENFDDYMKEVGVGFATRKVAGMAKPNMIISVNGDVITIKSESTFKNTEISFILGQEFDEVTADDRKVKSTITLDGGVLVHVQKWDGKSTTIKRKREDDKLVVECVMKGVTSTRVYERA
In another data set the target is T2, recombinant NDPK (Homo sapiens, UniProt P15531).
T2 construct: purchased Acro Biosystems NM1-H5147
T2 sequence (P15531 whole entry): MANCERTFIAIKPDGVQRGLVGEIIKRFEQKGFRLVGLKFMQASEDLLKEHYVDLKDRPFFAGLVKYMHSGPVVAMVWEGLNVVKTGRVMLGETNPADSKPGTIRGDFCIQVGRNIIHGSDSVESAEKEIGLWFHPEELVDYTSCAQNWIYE
As to the kind of experiment: Recombinant kinase activity assay, NDPK (ADP-Glo/Kinase-Glo). It is filed as biochemical. The method, then:
as §1

The source of these data is US20230203142A1, “TREATMENT OF METABOLIC DISORDERS THROUGH THE TARGETING OF A NOVEL CIRCULATING HORMONE COMPLEX” (The President and Fellows of Harvard College, priority 2020, published 2023).

T1 sequence (P55263 whole entry): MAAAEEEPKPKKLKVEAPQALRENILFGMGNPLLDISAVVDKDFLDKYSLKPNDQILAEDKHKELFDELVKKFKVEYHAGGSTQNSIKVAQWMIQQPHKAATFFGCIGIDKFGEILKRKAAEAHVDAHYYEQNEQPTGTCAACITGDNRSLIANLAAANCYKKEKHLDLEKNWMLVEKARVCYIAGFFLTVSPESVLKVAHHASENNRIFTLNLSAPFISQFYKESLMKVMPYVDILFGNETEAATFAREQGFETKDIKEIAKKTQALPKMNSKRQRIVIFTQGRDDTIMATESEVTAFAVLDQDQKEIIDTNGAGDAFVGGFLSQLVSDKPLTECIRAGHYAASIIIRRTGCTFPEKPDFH

B1: a-Ab: monoclonal antibody previously reported as CA33; heavy chain SEQ ID NO 446, light chain SEQ ID NO 447; binds FABP4 and NDPK (antibody, listed as Homo sapiens)
heavy: QSVEESGGRLVTPGTPLTLTCTVSGFSLSTYYMSWVRQAPGKGLEWIGIIYPSGSTYCASWAKGRFTISKASTTVDLKITSPTTEDTATYFCARPDNDGTSGYLSGFGLWGQGLVTVSSAKTTPPSVYPLAPGSAAQTNSMVTLGCLVKGYFPEPVTVTWNSGSLSSGVHTFPAVLQSDLYTLSSSVTVPSSTWPSETVTCNVAHPASSTKVDKKIVPRDC
light: DVVMTQTPASVSEPVGGTVTIKCGASEDISRYLVWYQQKPGQPPKRLIYKASTLASGVPSRFKGSGSGTDFTLTISDLECDDAATYYCQCTYGTYAGSFFYSFGGGTEVVVERTDAAPTVSIFPPSSEQLTSGGASVVCFLNNFYPKDINVKWKIDGSERQNGVLNSWTDQDSKDCTYSMSSTLTLTKDEYERHNSYTCEATHKTSTSPIVKSFNRNEC
As to B1, the “ADK activity to produce ATP” value in the data set with recombinant ADK (added to the NDPK-ADK/FABP4 complex, compared to the complex alone) was “no effect”. The “ADK activity to generate ATP” value with recombinant ADK (recombinant ADK plus the added component) is given as “no effect”. The ER calcium efflux result in the data set with INS1 cells [1] was “rescue”. Besides, the “extracellular calcium influx in response to glucose” value with INS1 cells [2] is given as “rescue”. Also, in the data set on primary human islets, the “GSIS in response to the NDPK-ADK/FABP4 complex” value is recorded as “rescued”. In addition, the “GSIS in the presence of the NDPK-ADK/FABP4 complex” value in the data set on INS1 cells [3] was “rescued”. Moreover, in the data set with FABP4, the “binding affinity for recombinant FABP4” value is on record as “relatively weak binding affinity”. Moreover, the “ADP producing capacity of NDPK” value in the data set with recombinant NDPK (in the presence of the complex components) is listed as “rescued”. In addition, in the data set with recombinant NDPK (recombinant NDPK plus the added component), the “activity of NDPK to generate ADP” value is recorded as “no effect”.
